In patent US20220324977A1 (BEIJING SINOGENE BIOTECHNOLOGY, published 2022):

Columns and labels:
[1] = molecular target: T1, canine PD-1 protein amino acids 25-168 with His tag (canine, UniProt A0A090BAM7 25-168); test: kinetics, PD-1 His 333.3 nM
T1 construct: Expressed in Expi293F cells; used as immunogen and as antigen in ELISA and Octet; also called PD-1 His

[2] = molecular target: T1, canine PD-1 protein amino acids 25-168 …; test: kinetics, PD-1 His 37.3 nM
[3] = molecular target: T2, PD1 on the surface of T cells (canine PBMC stimulated with ConA) (canine, UniProt A0A090BAM7 25-288); test: flow cytometry, ConA-stimulated canine PBMC, CD3-FITC and PE-labeled anti-canine IgG
T2 construct: also called canine PD-1
Method: (§1) The cells were stimulated by 0.5 μg/mL ConA for 3 days, and collected. PBMC was incubated with canine-anti-CD3-FITC and caninized monoclonal antibodies C1, C3 and C11 respectively. Then the cells were incubated again with PE-labeled canine-IgG antibody. […] Moreover, the results also indicate that the caninized monoclonal antibodies C1, C3 and C11 have potential blocking effect on the PD1/PD-L1 signaling pathway, and thus have protective effect on the function of T cells (see FIG. 14).

[4] = molecular target: T1, canine PD-1 protein amino acids 25-168 …; test: kinetics, PD-1 His 1000.0 nM
[5] = molecular target: T1, canine PD-1 protein amino acids 25-168 …; test: kinetics, PD-1 His 111.3 nM
[6] = molecular target: T1, canine PD-1 protein amino acids 25-168 …; test: kinetics, PD-1 His 12.4 nM
[7] = molecular target: T1, canine PD-1 protein amino acids 25-168 …; test: kinetics, global fit over the PD-1 His series 1.1-1000.0 nM
[8] = molecular target: T1, canine PD-1 protein amino acids 25-168 …; test: kinetics, PD-1 His 1.1 nM
[9] = molecular target: T2, PD1 on the surface of T cells (canine …); test: flow cytometry on ConA-stimulated canine PBMC, stained with anti-CD3-FITC and the caninized antibody, detected with PE-labeled anti-canine IgG; quadrant plot FITC against PE; no unstained or isotype control shown
Method: as §1

[10] = molecular target: T1, canine PD-1 protein amino acids 25-168 …; test: kinetics, PD-1 His 4.0 nM
[11] = molecular target: T1, canine PD-1 protein amino acids 25-168 …; test: kinetics, global fit over PD-1 His 1.1-1000 nM

T1 sequence (A0A090BAM7 entry or part of it limits assumed): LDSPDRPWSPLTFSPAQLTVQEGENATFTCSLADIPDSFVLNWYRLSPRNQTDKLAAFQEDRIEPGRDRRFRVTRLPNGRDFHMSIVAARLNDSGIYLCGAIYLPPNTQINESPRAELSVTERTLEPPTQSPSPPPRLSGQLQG
T2 sequence (A0A090BAM7 entry or part of it limits assumed): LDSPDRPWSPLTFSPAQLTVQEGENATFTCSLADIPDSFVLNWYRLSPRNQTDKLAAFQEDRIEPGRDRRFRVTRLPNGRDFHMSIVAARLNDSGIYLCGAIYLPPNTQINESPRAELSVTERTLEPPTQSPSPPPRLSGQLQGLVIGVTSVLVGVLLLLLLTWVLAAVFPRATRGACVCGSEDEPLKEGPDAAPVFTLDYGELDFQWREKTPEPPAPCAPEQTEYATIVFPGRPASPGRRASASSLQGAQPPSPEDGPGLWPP

B1: caninized monoclonal antibody C11 (antibody, V domains shown)
VH: EVQLQQSGAEVVKPGASVKLSCTASGFNIKDTYMHWVKQRPEQGLEWIGRIDPAIGNPKYDPKFQGRATITADTSSNTAYLQLSSLTSEDTAVYYCASGFYAMDCWGQGTSVTVSS
VL: QIVLTQSPAIMSASPGEKVTMTCSASSSITYMFWYQQKPGSSPRLWIYDTSNLVSGVPARFSGSKSGTSYSLTITSMEAEDAATYYCQQYSGYPSTFGSGTKLEIKR
notes: Variable domains as for M11; also called C11(37.40); 37.40
For B1, the Kd [1] was less than 1 pM, the “Response (nm)” value [1] was 0.012 nm and the koff [1] was less than 1e-07 s⁻¹. The kon [1] was 947 M⁻¹ s⁻¹, the Kd [2] was less than 1 pM and the “Response (nm)” value [2] was 0.015 nm. For the same binder, the koff [2] was less than 1e-07 s⁻¹, the kon [2] was 67600 M⁻¹ s⁻¹ and the “PD1 positive cells in T cells” value [3] was 96.7%. The Kd [4] was less than 1 pM, the “Response (nm)” value [4] was 0.009 nm and the koff [4] was less than 1e-07 s⁻¹. The kon [4] was 1470 M⁻¹ s⁻¹, the Kd [5] was less than 1 pM and the “Response (nm)” value [5] was 0.025 nm. The koff [5] was less than 1e-07 s⁻¹, the kon [5] was 23800 M⁻¹ s⁻¹ and the Kd [6] was less than 1 pM. The “Response (nm)” value [6] was 0.008 nm, the koff [6] was less than 1e-07 s⁻¹ and the kon [6] was 50100 M⁻¹ s⁻¹. For the same binder, the Kd [7] was less than 1 pM, the koff [7] was less than 1e-07 s⁻¹ and the kon [7] was 1190 M⁻¹ s⁻¹. The “Response (nm)” value [8] was -0.003 nm, the “% of cells in quadrant Q2 (Comp-FITC-A positive, Comp-PE-A positive)” value [9] was 62.6% and the “Response (nm)” value [10] was 0.004 nm. It also gave a Kd [11] of less than 1 pM, a koff [11] of less than 1e-07 s⁻¹ and a kon [11] of 1190 M⁻¹ s⁻¹.
